In the supplement of paper PMC12042874:
± gives the uncertainty stated by the source.

Assay: amyloid nucleation score (Sup35N fusion, yeast selection) (log enrichment); library NNK2; higher = more nucleation; inactive = no reads after selection
Summary of the method: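 Output and input plasmid inserts were sequenced by Illumina after psi-negative yeast carrying Sup35N fused to peptides of 20 random codons had been induced 24 hours with 100 μM copper sulfate and grown 7 days at 30°C on medium lacking adenine and uracil. The nucleation score is the DiMSum log enrichment of output over input reads, centred on the mode score of non-aggregating sequences. Sequences with under 100 input reads were excluded.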

Row | Substance | amyloid nucleation score
1 | NMEQFTRSIKSIGKRFTVTV | -0.471 ± 0.76
2 | SAGEKWWKGMHYARGRPVRR | 0.726 ± 0.2
3 | NLWRLISNLIDVMHPMYSTE | -0.089 ± 1.1
4 | PGHSWMMSDDPDRYMNNLTV | -0.053 ± 0.79
5 | SFEWKPVFLSRLRPRIRHQV | 5.66 ± 0.066
6 | KSVKIVSSAMKGWIHSTYSR | -0.316 ± 0.28
7 | YYINVDQESGSWMRTSVKGA | 0.207 ± 0.41
8 | RCSTFFEYSQTIPHYLVTLF | -0.91 ± 0.44
9 | FFYLRFAQWQLCRTFNAQGM | -0.184 ± 1.1
10 | RLMRAKCMQWVSFQ | -0.034 ± 0.4
11 | GEDHYIPQLFDGSVIILART | 0.117 ± 0.79
12 | TVMKDYMALESSSYVNPMLI | -0.251 ± 0.76
13 | TLAWGSGELTTLTADEDLPS | 0.58 ± 0.19
14 | QSTWSHGFKGRSVWRGLTKG | 1.66 ± 0.36
15 | VWRIRTAMGTG | 0.766 ± 0.19
16 | PQVNPYLNLCRLTQDMLLHR | 0.832 ± 0.15
17 | VTRRLYSRFIGTKEISAVIC | 0.119 ± 0.43
18 | TPYGFSFRTRYMKQADLALS | -0.315 ± 0.33
19 | RDSVIYCCMMMKGTCAWLYL | inactive
20 | NADKVQGMRMNRDWYSWCCL | 5.323 ± 0.038
21 | HYGVNESLIKRYNWLRGVIW | 0.227 ± 1.1
22 | TIDKISCNIRLRPVYMLLNA | 0.342 ± 0.56
23 | VSLYLYPVGMGMSE | 1 ± 0.68

Row | Substance | amyloid nucleation score
24 | FCREWDRSRQKG | 0.508 ± 0.25
25 | LFWFIYGSYRTVRACGRYSN | 0.516 ± 0.64
26 | PCSRPTLLPCHCGTTTTSHI | 2.4 ± 0.1
27 | TFCVRQLYLSML | 0.833 ± 0.2
28 | EWIWM | -0.129 ± 0.43
29 | YCDVWGRRCCDANYMERTAS | 1.35 ± 0.38
30 | RTPCVHMPHAVSLGLVALLL | -0.318 ± 0.76
31 | LAHVVNIVCFNF | 7.836 ± 0.026
32 | KVVIYGCSS | -0.183 ± 0.65
33 | TSVIGKSGPRYLFLEC | 0.299 ± 0.8
34 | SEANKSGVSVGWCDCAVGCV | 0.734 ± 0.21
35 | LAYLYTCLLLWSGSCNMTQV | inactive
36 | CWVAYERSHTFRPKNQFFMH | 1.02 ± 0.53
37 | SYCILVLNL | 6.445 ± 0.045
38 | CNVAHRLRVRSVAK | 0.789 ± 0.47
39 | LSMYDLYSMAR | inactive
40 | NSRLLVDGHFIRTFRAFWVN | -1.12 ± 0.56
41 | SVYLGCRCHVMFVRLTVAFV | inactive
42 | YFGVEKDEFPPLLGMHMF | -1.59 ± 0.75
43 | TVFWSNLVRVPCRSDTSQYD | 0.148 ± 1
44 | LNEIERSSD | 0.755 ± 0.3
45 | NIQWLLQVDEDFKF | 1.58 ± 0.16
46 | ATVIEYKYVRGMYLLMTYTY | -0.536 ± 1

Row | Substance | amyloid nucleation score
47 | CMKMSWFRTRSTYSIEALHS | 0.037 ± 0.41
48 | LLDWTLLSNST | inactive
49 | RMLSLGNYGSNAYICCIVCY | 1.92 ± 0.36
50 | RWLRPRSFWMDVVGSKI | 1.83 ± 0.11
51 | YTAIVRFWWVTQSVQFKNRD | -0.143 ± 0.8
52 | VNDLWRDSHNYFCTNGGNIR | inactive
53 | LQVMMYFWDEFVTKLEKVSG | -0.809 ± 1.1
54 | MCELGFHNSPFSGTFLLLMF | 1.64 ± 0.12
55 | RLSCKED | 0.108 ± 0.61
56 | LSGLIGG | -0.135 ± 0.55
57 | LKARIACADYIRSGIILLCS | 2.2 ± 0.08
58 | AFFKR | 0.182 ± 0.38
59 | VLMASSLITVSICVPRTWAY | 6.172 ± 0.041
60 | RPFLSTEKRSILMCRVVKGM | -0.254 ± 0.37
61 | RANFSGTKLLVNTECLWLSV | 2.35 ± 0.17
62 | HTHGGFSHRYGSRWGQYLSW | 5.53 ± 0.063
63 | SMADFIV | -0.767 ± 0.76
64 | SYGFFMVWIEGYFLVMASRI | inactive
65 | LPCRFKKYALHNQSTTGFWI | -0.187 ± 0.65
66 | RRKANRVQFLSEYFLVCFVH | inactive
67 | VCVGYFCC | 5.789 ± 0.024
68 | NLMWTLNLF | 8.253 ± 0.058
69 | DRRELRHDDAVVAYIDVVIE | 1.05 ± 0.28
